For this assay, the target named is CAP256.wk34.c80 SOSIP.RnS2 Env trimer containing the native N160 glycan site (HIV-1 clade C, CAP256.wk34.c80 …, stabilised).

B1: 2G12 (antibody, V domains shown)
VH: EVQLVESGGGLVKAGGSLILSCGVSNFRISAHTMNWVRRVPGGGLEWVASISTSSTYRDYADAVKGRFTVSRDDLEDFVYLQMHKMRVEDTAIYYCARKGSDRLSDNDPFDAWGPGTVVTVSP
VL: VVMTQSPSTLSASVGDTITITCRASQSIETWLAWYQQKPGKAPKLLIYKASTLKTGVPSRFSGSGSGTEFTLTISGLQFDDFATYHCQHYAGYSATFGQGTRVEIK
B1: the binding result was “binds”.

For the origin of these results see paper PMC8578620 (Nature Communications, 2021).
